We go through three molecules from paper PMC6047474.

Read-outs that look alike come from different tables or passages of the source.

The target in assay [1] is Histones (bovine), Sigma-Aldrich H9250 (bovine). As to the kind of experiment: ITC. A general note: In ITC the heat of successive injections is recorded.
Assay [2] shares this target. As to the kind of experiment: ITC. The source holds these as a separate data set.

In general, Kd refers to a measure of binding affinity in units of concentration. Higher therefore signals weaker binding.

In assay [1], βL-crystallin (complex) yielded a Ka of 1.15e+07 M⁻¹, a Kd of 86.4 nM and a dH of -10.7 kcal/mol. In assay [2], this molecule returned a Ka of 1.35e+06 M⁻¹, a dissociation constant (Kd) of 743 nM and a dH of -8.86 kcal/mol.

γ-crystallin: in assay [1], the Ka came to 7.85e+06 M⁻¹, the Kd turned out to be 127 nM and the dH was -13.4 kcal/mol. Besides, in assay [2], the Ka was 9.79e+06 M⁻¹, the Kd came out at 102 nM and the dH is -15.8 kcal/mol.

B1: α-crystallin (complex)
chain 1: MDIAIQHPWFKRALGPFYPSRLFDQFFGEGLFEYDLLPFLSSTISPYYRQSLFRTVLDSGVSEVRSDRDKFVIFLDVKHFSPEDLTVKVQEDFVEIHGKHNERQDDHGYISREFHRRYRLPSNVDQSALSCSLSADGMLTFSGPKVPSGVDAGHSERAIPVSREEKPSSAPTS
chain 2: MDIAIHHPWIRRPFFPFHSPSRLFDQFFGEHLLESDLFPASTSLSPFYFRPPSFLRAPSWIDTGLSEMRLEKDRFSVNLDVKHFSPEELKVKVLGDVIEVHGKHEERQDEHGFISREFHRKYRIPADVDPLTITSSLSSDGVLTVNGPRRQASGPERTIPITREEKPAVTAAPKK
For B1, in assay [1], the Kd turned out to be 400 nM and the dH was -6.29 kcal/mol. In assay [2], this molecule yielded a Ka of 3.42e+07 M⁻¹ and a Kd of 29.3 nM.
